Source: paper PMC7048182

Target: V5-tagged LvpIgR expressed in HEK293T cells (Litopenaeus vannamei)

Substance: GST-tagged VP24 of WSSV (natural protein)
- WSSV infection rate of HEK293T cells transfected with LvpIgR, FITC-labelled WSSV preincubated with rPEN2; control preincubated with rTrx: 49.08%: 33.9%
